Measurements taken from patent publication US20180016324A1 (Regeneron, published 2018).
Read-outs that look alike come from different tables or passages of the source.

Legend:
[1] = target: T1, ZIKV prM/E polyprotein on virus-like particles (VLPs) from HEK293T/17 cells (Zika virus, UniProt A0A024B7W1 123-795); test: MSD ECL, VLPs on plate
T1 construct: also called ZIKV prM/E VLPs; Zika prM/E VLPs

[2] = target: T2, ZIKV envelope glycoprotein (E) of strain MR766 (Uganda 1947) (Zika virus, UniProt Q32ZE1 291-790); test: cell-based or functional assay
[3] = target: T3, ZIKV (prM80E) with a C-terminal myc-myc-hexahistidine tag (Zika virus, UniProt A0A024B7W1 104-694); test: SPR, mAb captured, 37C, pH 6.0 chase
T3 construct: also called ZIKV (prM80E)-mmH; ZIKV-mmH

[4] = target: T3, ZIKV (prM80E) with a C-terminal …; test: SPR, mAb captured, 37C, pH 5.5 chase
[5] = target: ZIKV envelope glycoprotein (E) of strain FLR (Colombia 2015) (Zika virus); test: cell-based or functional assay
[6] = target: T2, ZIKV envelope glycoprotein (E) of …; test: cell-based or functional assay; remark: listed apart in the source
[7] = target: ZIKV envelope glycoprotein (E) of strain PRVABC59 (Puerto Rico 2015) (Zika virus); test: cell-based or functional assay
[8] = target: T3, ZIKV (prM80E) with a C-terminal …; test: SPR, mAb captured, 25C
[9] = target: T3, ZIKV (prM80E) with a C-terminal …; test: SPR, mAb captured, 37C, pH 7.4
[10] = target: T3, ZIKV (prM80E) with a C-terminal …; test: SPR, mAb captured, 37C
[11] = target: ZIKV E protein with escape mutation S302F (Zika virus); test: cell-based or functional assay
[12] = target: T3, ZIKV (prM80E) with a C-terminal …; test: SPR, mAb captured, 37C, pH 5.0 chase
[13] = target: T3, ZIKV (prM80E) with a C-terminal …; test: SPR, mAb captured, 37C; remark: listed apart in the source
[14] = target: T3, ZIKV (prM80E) with a C-terminal …; test: SPR, mAb captured, 37C; remark: listed apart in the source
[15] = target: T1, ZIKV prM/E polyprotein on virus-like …; test: MSD ECL, VLPs on plate; high concentrations excluded from fit
[16] = target: ZIKV E protein with escape mutations T311I and K369E (Zika virus); test: cell-based or functional assay

B1: H2aM25710N (antibody, V domains shown)
VH: EVQLLESGGGLVQPGGSLRLSCAASGFTVSNNYMSWVRQAPGKGLEWVSVIYSGGRTNYGDSVKGRFTISRDNSKNTLYLQMNSLRAEDTAVYYCARENYDFWSGDPYGWDVWGQGTTVTVSS
VL: DIQMTQSPSSLSASVGDRVTITCRASQDISNYLAWFQQKPGKAPKSLIYGASSLQRGVPSKFRGSGSGTDFTLTISSLQPEDFASYYCQQYNSYPYTFGQGTKLEIK
Question: Which EC50 [1] does the source give for B1 here?
Answer: 0.244 nM

Question: What about the “neutralization IC50, Vero cells” value [2] of the same binder?
Answer: 0.017 nM

B2: H4H25619P (antibody, V domains shown)
VH: QVQLVESGGGVVQPGRSLRLSCTASGFTFSTYGMHWVRHVPGKGLEWVAIVWYDGSDKSYAASVKGRFTISRDNSKNTLFLQMNSLRAEDTAVYYCARQGTYYYYGMDVWGQGTTVTVSS
VL: DIQMTQSPSSLSASVGDRVTITCRSSQTITNYLNWYQQRPGKAPKLLIYAASSLQSGVPSRFSGSGSGTDFTLTISSLQPEDFATYYCQQSYSTPPITFGQGTKLEIKR
Question: What does the source list for B2?
Answer: EC50 [1]: 1.92 nM; koff [3]: 0.00102 s⁻¹; t½ [3]: 11.3 min; koff [4]: 0.000953 s⁻¹; t½ [4]: 12.1 min; neutralization IC50, Vero cells [5]: 1.26 nM; neutralization IC50, Vero cells [6]: 0.171 nM; neutralization IC50, Vero cells [7]: 1.14 nM; Kd [8]: 3.14 nM; koff [8]: 0.000516 s⁻¹; kon [8]: 164000 M⁻¹ s⁻¹; t½ [8]: 22.4 min; koff [9]: 0.00193 s⁻¹; t½ [9]: 6 min; t½ pH 7.4/t½ pH 6.0 [10]: 0.5; IC50 (read off the curve) [11]: ~1 nM; koff [12]: 0.000548 s⁻¹; t½ [12]: 21.1 min; t½ pH 7.4/t½ pH 5.0 [13]: 0.3; t½ pH 7.4/t½ pH 5.5 [13]: 0.5; Kd [14]: 5.59 nM; koff [14]: 0.00108 s⁻¹; kon [14]: 193000 M⁻¹ s⁻¹; t½ [14]: 10.7 min

B3: H4H25704N (antibody, V domains shown)
VH: QVQLVESGGGVVQSGRSLRLSCAASGFTFIYYGMHWVRQAPGKGLEWVAVISYDGSDRYYADSVKGRFTISRDDSKNTLYLQMNSLRPEDTAVYYCAKDRGGRFDYWGQGTLVTVSS
VL: EIVLTQSPGTLSLSPGERATLSCRASQSVNNNYLAWYQQKPGQAPRLLIYGASSRATGIPDRFGGGGSGTDFTLTISRLEPEDFAVYYCQRYGNSPLTFGGGTKVEIK
Question: Which results are given for B3?
Answer: koff [3]: 0.00131 s⁻¹; t½ [3]: 8.85 min; koff [4]: 0.00107 s⁻¹; t½ [4]: 10.8 min; neutralization IC50, Vero cells [5]: 0.0758 nM; neutralization IC50, Vero cells [6]: 0.046 nM; neutralization IC50, Vero cells [7]: 0.278 nM; Kd [8]: 0.27 nM; koff [8]: 0.000359 s⁻¹; kon [8]: 1.33e+06 M⁻¹ s⁻¹; t½ [8]: 32.2 min; koff [9]: 0.00121 s⁻¹; t½ [9]: 9.56 min; t½ pH 7.4/t½ pH 6.0 [10]: 1.1; koff [12]: 0.000959 s⁻¹; t½ [12]: 12 min; EC50 [15]: 0.18 nM; t½ pH 7.4/t½ pH 5.0 [13]: 0.8; t½ pH 7.4/t½ pH 5.5 [13]: 0.9; Kd [14]: 0.621 nM; koff [14]: 0.0012 s⁻¹; kon [14]: 1.93e+06 M⁻¹ s⁻¹; t½ [14]: 9.6 min

B4: H4H25703N (antibody, V domains shown)
VH: QVQLVESGGGVVQPGRSLRLSCAASGFTFNYYGMHWVRQAPGKGLEWVAVISYDGTNKYYADSVKGRFTTSRDNSKNTLYLQMNSLRAEDTALYYCARDRGGRFDYWGQGIQVTVSS
VL: EIVLTQSPDTLSLSPGERATLSCRASQSVSSNYLAWYQQKPGQAPRLLIYGASSRATGIPDRFSGSGSGTDFTLTISRLEPEDFAVYYCQRYGTSPLTFGGGTKVEIKR
Question: Which “IC50 (read off the curve)” value [16] does the source give for B4 here?
Answer: ~1 nM

Question: And the EC50 [1]?
Answer: 0.0846 nM

Question: What about the koff [3] of the same binder?
Answer: 0.00283 s⁻¹

Question: What about the t½ [3] of the same binder?
Answer: 4.08 min

Question: What about the koff [4] of the same binder?
Answer: 0.00326 s⁻¹

Question: What about the t½ [4] of the same binder?
Answer: 3.54 min

Question: And the “neutralization IC50, Vero cells” value [5]?
Answer: 0.0619 nM

Question: What about the “neutralization IC50, Vero cells” value [6] of the same binder?
Answer: 0.0445 nM

Question: What about the “neutralization IC50, Vero cells” value [7] of the same binder?
Answer: 0.251 nM

Question: What about the Kd [8] of the same binder?
Answer: 0.542 nM

Question: And the koff [8]?
Answer: 0.000307 s⁻¹

Question: And the kon [8]?
Answer: 566000 M⁻¹ s⁻¹

Question: And the t½ [8]?
Answer: 37.6 min

Question: And the koff [9]?
Answer: 0.00211 s⁻¹

Question: And the t½ [9]?
Answer: 5.47 min

Question: What about the “t½ pH 7.4/t½ pH 6.0” value [10] of the same binder?
Answer: 1.3

Question: What about the koff [12] of the same binder?
Answer: 0.0028 s⁻¹

Question: And the t½ [12]?
Answer: 4.1 min

Question: And the “t½ pH 7.4/t½ pH 5.0” value [13]?
Answer: 1.3

Question: And the “t½ pH 7.4/t½ pH 5.5” value [13]?
Answer: 1.5

Question: And the Kd [14]?
Answer: 2.39 nM

Question: And the koff [14]?
Answer: 0.00177 s⁻¹

Question: What about the kon [14] of the same binder?
Answer: 738000 M⁻¹ s⁻¹

Question: And the t½ [14]?
Answer: 6.5 min
